Measurements from patent publication US11278600B2, “Human alpha-galactosidase variants” (Codexis, Inc., priority 2014, dated 2022).

Experiments:
Assay type in all cases: biochemical
[1] = HTP-analysis of yeast culture supernatants, no challenge (MUGal hydrolysis); conditions: activity of the variant/activity of Rd3BB (SEQ ID NO: 13), yeast supernatant
How it was run: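 GLA variants were expressed in INVSc1 yeast grown in SD-Ura broth with glucose at 30° C., and culture supernatants were collected after 66-84 h. Supernatant was mixed with McIlvaine buffer pH 4.8 and MUGal (2 mM stock) in 50 mM citrate, 200 mM KCl, pH 4.6, incubated at 37° C. for 30-180 minutes, then quenched with sodium carbonate.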

[2] = HTP-analysis of supernatants pretreated with acid (MUGal hydrolysis); conditions: challenge at pH 3.3; activity of the variant/activity of Rd3BB (SEQ ID NO: 13); yeast supernatant
How it was run: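 GLA variants were secreted from INVSc1 yeast grown 66-84 h at 30° C. in SD-Ura with 2% glucose; supernatants were mixed with McIlvaine buffer pH 3.3-4.3 and held at 37° C. for 1-3 h. Residual activity on MUGal at pH 4.8 was then measured by fluorescence.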

[3] = HTP-analysis of supernatants pretreated with base (MUGal hydrolysis); conditions: challenge at pH 9.7; activity of the variant/activity of Rd3BB (SEQ ID NO: 13); yeast supernatant
How it was run: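 GLA variants secreted from yeast INVSc1; culture supernatants pre-incubated with McIlvaine buffer pH 7.0–8.2 or 200 mM bicarbonate pH 9.1–9.7 at 37° C. for 1–18 h. Residual activity: MUGal (4 mM stock) hydrolysis at pH 4.3–4.8, 37° C., 30–180 min, carbonate quench; fluorescence Ex 355/Em 448 nm.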

Molecule	Relative Activity of GLA Variants After No Challenge (NC) [1]	Relative Activity of GLA Variants After Challenge at pH 3.3 [2]	Relative Activity of GLA Variants After Challenge at pH 9.7 [3]
614 (protein, Synthetic Polypeptide sequence of Variant No. 614 of mature Human GLA) LDNGLARTPTMGWLHWERFMCNLDCQEEPDSCISEKLFMEMAERMVTEGWKDAGYEYLCIDDCWMAPQRDSEGRLQADPQRFPHGIRQLANHVHSKGLKLGIYADVGNKTCAGFPGSFGYYDIDAQTFADWGVDLLKFDGCYCDSLENLADGYKHMSLALNRTGRPIVYSCEWPLYMWPFQKPNYTEIRQYCNHWRNFADIDDSWASIKSILDWTSRNQERIVDVAGPGGWNDPDMLVIGNFGLSWDQQVTQMALWAIMAAPLFMSNDLRHISPQAKALLQDKDVIAINQDPLGKQGYQLRKGDNFEVWERPLSGDAWAVAIINRQEIGGPRSYTIPVASLGKGVACNPACFITQLLPVKRQLGFYNWTSRLKSHINPTGTVLLQLENTMQMSLKDLL	+ (+ = 1.5 to 5 relative activity over Rd3BB (SEQ ID NO: 13))	++ (++ = >5 to 10 relative activity over Rd3BB (SEQ ID NO: 13))	++ (++ = >5 to 10 relative activity over Rd3BB (SEQ ID NO: 13))
619 (protein, Synthetic Polypeptide sequence of Variant No. 619 of mature Human GLA) LDNGLARTPTMGWLHWERFMCNLDCQEEPDSCISEKLFMEMAERMVTEGWKDAGYEYLCIDDCWMAPQRDSEGRLQADPQRFPHGIRQLANHVHSKGLKLGIYADVGNKTCAGFPGSFGYYDIDAQTFADWGVDLLKFDGCYCDSLENLADGYKHMSLALNRTGRPIVYSCEWPLYMWPFQKPNYTEIRQYCNHWRNFADIDDSWASIKSILDWTSRNQERIVDVAGPGGWNDPDMLVIGNFGLSWDQQVTQMALWAIMAAPLFMSNDLRAISPQAKALLQDKDVIAINQDPLGKQGYQLRKGDNFEVWERPLSGDAWAVAIINRQEIGGPRSYTIPVASLGKGVACNPACFITQLLPVKRQLGFYNWTSRLKSHINPTGTVLLQLENTHQMSLKDLL	+ (+ = 1.5 to 5 relative activity over Rd3BB (SEQ ID NO: 13))	++ (++ = >5 to 10 relative activity over Rd3BB (SEQ ID NO: 13))	++ (++ = >5 to 10 relative activity over Rd3BB (SEQ ID NO: 13))
618 (protein, Synthetic Polypeptide sequence of Variant No. 618 of mature Human GLA) LDNGLARTPTMGWLHWERFMCNLDCQEEPDSCISEKLFMEMAERMVTEGWKDAGYEYLCIDDCWMAPQRDSEGRLQADPQRFPHGIRQLANHVHSKGLKLGIYADVGNKTCAGFPGSFGYYDIDAQTFADWGVDLLKFDGCYCDSLENLADGYKHMSLALNRTGRPIVYSCEWPLYMWPFQKPNYTEIRQYCNHWRNFADIDDSWASIKSILDWTSRNQERIVDVAGPGGWNDPDMLVIGNFGLSWDQQVTQMALWAIMAAPLFMSNDLRAISPQAKALLQDKDVIAINQDPLGKQGYQLRKGDNFEVWERPLSGDAWAVAIINRQEIGGPRSYTIPVASLGKGVACNPACFITQLLPVKRQLGFYNWTSRLKSHINPTGTVLLQLENTMQMSLKDLL	+ (+ = 1.5 to 5 relative activity over Rd3BB (SEQ ID NO: 13))	++ (++ = >5 to 10 relative activity over Rd3BB (SEQ ID NO: 13))	++ (++ = >5 to 10 relative activity over Rd3BB (SEQ ID NO: 13))
616 (protein, Synthetic Polypeptide sequence of Variant No. 616 of mature Human GLA) LDNGLARTPTMGWLHWERFMCNLDCQEEPDSCISEKLFMEMAERMVTEGWKDAGYEYLCIDDCWMAPQRDSEGRLQADPQRFPHGIRQLANHVHSKGLKLGIYADVGNKTCAGFPGSFGYYDIDAQTFADWGVDLLKFDGCYCDSLENLADGYKHMSLALNRTGRPIVYSCEWPLYMWPFQKPNYTEIRQYCNHWRNFADIDDSWASIKSILDWTSRNQERIVDVAGPGGWNDPDMLVIGNFGLSWDQQVTQMALWAIWAAPLFMSNDLRAISPQAKALLQDKDVIAINQDPLGKQGYQLRKGDNFEVWERPLSGDAWAVAIINRQEIGGPRSYTIPVASLGKGVACNPACFITQLLPVKRQLGFYNWTSRLKSHINPTGTVLLQLENTQQMSLKDLL	+ (+ = 1.5 to 5 relative activity over Rd3BB (SEQ ID NO: 13))	+ (+ = 1.5 to 5 relative activity over Rd3BB (SEQ ID NO: 13))	++ (++ = >5 to 10 relative activity over Rd3BB (SEQ ID NO: 13))
617 (protein, Synthetic Polypeptide sequence of Variant No. 617 of mature Human GLA) LDNGLARTPTMGWLHWERFMCNLDCQEEPDSCISEKLFMEMAERMVSEGWKDAGYEYLCIDDCWMAPQRDSEGRLQADPQRFPHGIRQLANHVHSKGLKLGIYADVGNKTCAGFPGSFGYYDIDAQTFADWGVDLVKFDGCYCDSLENLADGYKHMSLALNRTGRPIVYSCEWPLYMWPFQKPNYTEIRQYCNHWRNFADIDDSWASIKSILDWTSRNQERIVDVAGPGGWNDPDMLVIGNFGLSWDQQVTQMALWAIAAAPLFMSNDLRHISPQAKALLQDKDVIAINQDPLGKQGYQLRKGDNFEVWERPLSGDAWAVAIINRQEIGGPRSYTIPVASLGKGVACNPACFITQLLPVKRQLGFYNWTSRLKSHINPTGTVLLQLENTQQMSLKDLL	+ (+ = 1.5 to 5 relative activity over Rd3BB (SEQ ID NO: 13))	++ (++ = >5 to 10 relative activity over Rd3BB (SEQ ID NO: 13))	++ (++ = >5 to 10 relative activity over Rd3BB (SEQ ID NO: 13))
621 (protein, Synthetic Polypeptide sequence of Variant No. 621 of mature Human GLA) LDNGLARTPTMGWLHWERFMCNLDCQEEPDSCISEKLFMEMAERMVTEGWKDAGYEYLCIDDCWMAPQRDSEGRLQADPQRFPHGIRQLANHVHSKGLKLGIYADVGNKTCAGFPGSFGYYDIDAQTFADWGVDLLKFDGCYCDSLENLADGYKHMSLALNRTGRPIVYSCEWPLYMWPFQKPNYTEIRQYCNHWRNFADIDDSWASIKSILDWTSRNQERIVDVAGPGGWNDPDMLVIGNFGLSWDQQVTQMALWAIEAAPLFMSNDLRAISPQAKALLQDKDVIAINQDPLGKQGYQLRKGDNFEVWERPLSGDAWAVAIINRQEIGGPRSYTIPVASLGKGVACNPACFITQLLPVKRQLGFYNWTSRLKSHINPTGTVLLQLENTQQMSLKDLL	+ (+ = 1.5 to 5 relative activity over Rd3BB (SEQ ID NO: 13))	++ (++ = >5 to 10 relative activity over Rd3BB (SEQ ID NO: 13))	− (− = <1.5 relative activity to Rd3BB (SEQ ID NO: 13))
615 (protein, Synthetic Polypeptide sequence of Variant No. 615 of mature Human GLA) LDNGLARTPTMGWLHWERFMCNLDCQEEPDSCISEKLFMEMAERMVNEGWKDAGYEYLCIDDCWMAPQRDSEGRLQADPQRFPHGIRQLANHVHSKGLKLGIYADVGNKTCAGFPGSFGYYDIDAQTFADWGVDLLKFDGCYCDSLENLADGYKHMSLALNRTGRPIVYSCEWPLYMWPFQKPNYTEIRQYCNHWRNFADIDDSWASIKSILDWTSRNQERIVDVAGPGGWNDPDMLVIGNFGLSWDQQVTQMALWAIMAAPLFMSNDLRHISPQAKALLQDKDVIAINQDPLGKQGYQLRKGDNFEVWERPLSGDAWAVAIINRQEIGGPRSYTIPVASLGKGVACNPACFITQLLPVKRQLGFYNWTSRLKSHINPTGTVLLQLENTHQMSLKDLL	+ (+ = 1.5 to 5 relative activity over Rd3BB (SEQ ID NO: 13))	++ (++ = >5 to 10 relative activity over Rd3BB (SEQ ID NO: 13))	++ (++ = >5 to 10 relative activity over Rd3BB (SEQ ID NO: 13))
620 (protein, Synthetic Polypeptide sequence of Variant No. 620 of mature Human GLA) LDNGLARTPTMGWLHWERFMCNLDCQEEPDSCISEKLFMEMAERMVTEGWKDAGYEYLCIDDCWMAPQRDSEGRLQADPQRFPHGIRQLANHVHSKGLKLGIYADVGNKTCAGFPGSFGYYDIDAQTFADWGVDLLKFDGCYCDSLENLADGYKHMSLALNRTGRPIVYSCEWPLYMWPFQKPNYTEIRQYCNHWRNFADIDDSWASIKSILDWTSRNQERIVDVAGPGGWNDPDMLVIGNFGLSWDQQVTQMALWAIMAAPLFMSNDLRAISPQAKALLQDKDVIAINQDPLGKQGYQLRKGDNFEVWERPLSGDAWAVAIINRQEIGGPRSYTIPVASLGKGVACNPACFITQLLPVKRQLGFYNWTSRLKSHINPTGTVLLQLENTQQMSLKDLL	− (− = <1.5 relative activity to Rd3BB (SEQ ID NO: 13))	+ (+ = 1.5 to 5 relative activity over Rd3BB (SEQ ID NO: 13))	++ (++ = >5 to 10 relative activity over Rd3BB (SEQ ID NO: 13))
